These results are taken from article PMC3192862 (Molecular Biology of the Cell, 2011).

Usually Kd stands for the equilibrium constant for the complex coming apart. High values mean weaker binding, low ones tighter binding.

Data set [1] addresses T1, fission yeast profilin (fission yeast, UniProt P39825 1-127).
T1 sequence (looked up): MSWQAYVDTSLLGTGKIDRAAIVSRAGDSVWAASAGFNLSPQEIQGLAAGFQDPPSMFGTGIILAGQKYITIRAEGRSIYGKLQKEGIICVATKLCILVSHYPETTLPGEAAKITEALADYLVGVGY
Briefly: other fluorescence titration.

Data set [2] deals with the molecule itself. Briefly: SEC. In general terms: SEC sorts molecules by how far they enter the pores of the column.

Residue numbers refer to the chain shown, from its start. Numbers in names are those of the source.

B1: Cdc12(FH1) (domain or fragment, S. pombe, UniProt Q10059 882-972, looked up)
chain: NNSKITNFDIPNDATSLPTIITHPTPPPPPPLPVKTSLNTFSHPDSVNIVANDTSVAGVMPAFPPPPPPPPPLVSAAGGKFVSPAVSNNIS
The molecule B1 displayed a Kd in data set [1] of 1700 nM.

B2: Cdc12(FH2), wild type (domain or fragment, S. pombe, UniProt Q10059 973-1390, looked up)
chain: KDDLHKTTGLTRRPTRRLKQMHWEKLNSGLEFTFWTGPSDEANKILETLHTSGVLDELDESFAMKEAKTLVKKTCARTDYMSSELQKLFGIHFHKLSHKNPNEIIRMILHCDDSMNECVEFLSSDKVLNQPKLKADLEPYRIDWANGGDLVNSEKDASELSRWDYLYVRLIVDLGGYWNQRMNALKVKNIIETNYENLVRQTKLIGRAALELRDSKVFKGLLYLILYLGNYMNDYVRQAKGFAIGSLQRLPLIKNANNTKSLLHILDITIRKHFPQFDNFSPELSTVTEAAKLNIEAIEQECSELIRGCQNLQIDCDSGALSDPTVFHPDDKILSVILPWLMEGTKKMDFLKEHLRTMNTTLNNAMRYFGEQPNDPNSKNLFFKRVDSFIIDYSKARSDNLKSEEEEASQHRRLNLVN
For B2, the binding result in data set [2] is “binds”.

B3: Cdc12(FH2) G1201R, N1202P (domain or fragment, S. pombe, UniProt Q10059 973-1390, looked up)
chain: B2 chain with G229R, N230P
Turning to B3, in data set [2], the binding result is on record as “binds”.

B4: Cdc12(FH2) K1226A (domain or fragment, S. pombe, UniProt Q10059 973-1390, looked up)
chain: B2 chain with K254A
Regarding B4, in data set [2], the binding result is given as “binds”.

B5: Cdc12(FH2) K991A (domain or fragment, S. pombe, UniProt Q10059 973-1390, looked up)
chain: B2 chain with K19A
As to B5, the binding result in data set [2] is given as “binds”.

B6: Cdc12(FH2) I1063A (domain or fragment, S. pombe, UniProt Q10059 973-1390, looked up)
chain: B2 chain with I91A
Turning to B6, the binding result in data set [2] is listed as “binds”.

B7: For3(FH1) (domain or fragment, S. pombe, UniProt O94532 718-837, looked up)
chain: SDTVEEQQKLLLKSPPPPPPAVIVPTPAPAPIPVPPPAPIMGGPPPPPPPPGVAGAGPPPPPPPPPAVSAGGSRYYAPAPQAEPEPKIDETSLTEEQKIQLEEARKQRKAADDAARAAIE
B7 had a Kd in data set [1] of 6500 nM. That is a single-digit micromolar value.

B8: Fus1(FH1) (domain or fragment, S. pombe, UniProt Q10719 792-862, looked up)
chain: MRIKEVIDGNPFKAPPPAPLPPPAPPLPTAMSSLQKFEKNDSQIFRKTIIIPENISIDDIFKFCSGSESEV
Molecule B8 had a Kd in data set [1] of 1300 nM.
